Results from patent publication US20190218304A1, “POTENTIATING THE EFFECT OF ATP RELEASE” (INNATE PHARMA, priority 2017, published 2019).
Entries after “also recorded” stand apart in the source; their conditions may differ.

Key:
[1] = target: T1, CHO cells expressing human CD39 (Homo sapiens, UniProt P49961); experiment: Antibody titration by flow cytometry on CHO-huCD39; type: binding
T1 construct: expressed in transfected cells; host or cells: CHO cells
T1 sequence (P49961 1-510): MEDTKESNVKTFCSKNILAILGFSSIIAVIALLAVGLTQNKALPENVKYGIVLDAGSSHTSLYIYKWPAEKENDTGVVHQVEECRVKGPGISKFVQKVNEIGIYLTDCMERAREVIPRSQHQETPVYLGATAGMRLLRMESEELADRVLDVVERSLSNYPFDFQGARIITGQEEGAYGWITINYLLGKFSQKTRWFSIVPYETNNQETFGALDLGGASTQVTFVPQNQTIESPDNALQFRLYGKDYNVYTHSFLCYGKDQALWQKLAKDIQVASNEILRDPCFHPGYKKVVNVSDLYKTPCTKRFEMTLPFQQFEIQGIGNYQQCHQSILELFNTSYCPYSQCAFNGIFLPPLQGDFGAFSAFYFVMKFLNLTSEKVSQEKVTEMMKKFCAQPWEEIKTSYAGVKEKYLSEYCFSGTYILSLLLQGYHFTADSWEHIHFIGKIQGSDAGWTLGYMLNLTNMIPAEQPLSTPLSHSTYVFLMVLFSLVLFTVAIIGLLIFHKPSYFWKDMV
Experimental: Cells were incubated with various concentration of unlabeled anti-CD39 antibody from 30 μg/ml to 5×10^−4 μg/ml, for 30 minutes at 4° C. After washes, cells were incubated with Goat anti-mouse H+L labeled secondary antibody for 30 min at 4° C.

[2] = target: T2, Human CD39-L1, also known as NTPDase2 or ENTPD2 (Homo sapiens, UniProt Q9Y5L3); experiment: ELISA titration on CD39-L1; type: binding; conditions: coated recombinant protein, OD=450
T2 sequence (Q9Y5L3 1-472 isoform Q9Y5L3-2): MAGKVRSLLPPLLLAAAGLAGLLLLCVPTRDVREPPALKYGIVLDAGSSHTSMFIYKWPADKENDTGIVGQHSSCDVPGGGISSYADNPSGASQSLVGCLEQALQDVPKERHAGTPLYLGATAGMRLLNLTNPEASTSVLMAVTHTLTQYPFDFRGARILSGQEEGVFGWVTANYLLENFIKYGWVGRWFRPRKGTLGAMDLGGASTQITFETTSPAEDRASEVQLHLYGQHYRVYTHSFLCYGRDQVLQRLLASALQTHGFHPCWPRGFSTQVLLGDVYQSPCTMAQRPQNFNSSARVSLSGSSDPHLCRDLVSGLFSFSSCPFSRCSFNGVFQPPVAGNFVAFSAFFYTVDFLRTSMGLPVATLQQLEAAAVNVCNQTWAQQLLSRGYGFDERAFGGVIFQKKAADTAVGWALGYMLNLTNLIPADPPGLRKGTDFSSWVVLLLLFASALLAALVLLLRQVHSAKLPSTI
Experimental: (§1) Wells were washed in TBS Tween 20, and further saturated 2H at RT in TBS Blocking buffer. Dose range concentration of primary antibody was incubated in TBS blocking buffer for 2 h at RT. Wells were washed in TBS Tween 20. […] Optical density was measured on Enspire™ at OD=450.

[3] = target: T3, Human CD39-L4, also known as NTPDase5 or ENTPD5 (Homo sapiens, UniProt O75356); experiment: ELISA titration on CD39-L4; type: binding; conditions: coated recombinant protein, OD=450
T3 sequence (O75356 25-428): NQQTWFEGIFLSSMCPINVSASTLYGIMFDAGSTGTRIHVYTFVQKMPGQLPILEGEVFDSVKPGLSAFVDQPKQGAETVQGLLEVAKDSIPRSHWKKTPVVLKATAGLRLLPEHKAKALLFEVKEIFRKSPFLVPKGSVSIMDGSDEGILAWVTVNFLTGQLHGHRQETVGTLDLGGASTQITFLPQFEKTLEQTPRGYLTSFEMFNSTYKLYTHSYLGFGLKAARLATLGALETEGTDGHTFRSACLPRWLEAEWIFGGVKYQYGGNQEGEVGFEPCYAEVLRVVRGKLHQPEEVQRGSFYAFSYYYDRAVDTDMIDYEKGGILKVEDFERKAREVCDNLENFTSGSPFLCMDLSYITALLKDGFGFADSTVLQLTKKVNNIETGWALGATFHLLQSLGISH
Experimental: as §1

allogenic CD4 T cells = experiment: Mixed lymphocytes reaction (MLR) of ATP-activated DC with allogenic CD4 T cells; type: cell-based, human; conditions: ATP-activated MoDC, 1 MoDC/4 T cells, 5 days
Experimental: T cells activation and proliferation were analyzed through CD25 expression and Cell Trace Violet dilution by flow cytometry.
Briefly, human monocytes were purified from human healthy blood and differentiated into MoDC in presence of GM-CSF and IL-4 during 6 days. Then MoDC were activated in presence of ATP (Sigma, 0.25-1 mM) during 24 hours and DC activation were assessed by analyzing CD80, CD83 and HLA-DR expression by flow cytometry. […] LPS (Invivogen, 10 ng/ml) was used as positive control. To assess resulting effect of ATP-mediated DC activation on CD4 T cells activation, ATP-activated DC were washed and then incubated with allogenic CD4 T cells (ratio 1 MoDC/4 T cells) for a mixed lymphocytes reaction (MLR) during 5 days. T cells activation and proliferation were analyzed through CD25 expression and Cell Trace Violet dilution by flow cytometry (FIG. 8).

[4] = test system: MCA205 mouse tumor cells (sarcoma); experiment: In vivo combination treatment, MCA205 tumors in human CD39 KI mice; conditions: second experimental series: oxaliplatin injected twice, one week apart, one day after I-394
Experimental: 1×10^6 MCA205 mouse tumor cells (sarcoma) were subcutaneously engrafted in the right flank of mice genetically modified to express human CD39 (CD39KI mice). […] Tumors were measured twice a week with a caliper (L: length and w: width) and tumor volume was calculated with the formula (L×w2)/2. Mice were sacrificed when tumor volume was above 1800 mm^3 or when tumors were highly necrosed. The human CD39 KI mice were engrafted with MCA205 tumor cells at day 0.
In a first experimental series, mice were treated at day 5 post tumor cell engraftment with either control (1 group) PBS, or oxaliplatin chemotherapy (2 groups). In parallel, one group of mice treated with oxaliplatin was injected twice a week with anti-CD39 antibody, with the anti-CD39 antibody treatment starting just one day before oxaliplatin treatment (at day 4).

B1: I-394: anti-CD39 antibody, VH SEQ ID NO: 3, VL SEQ ID NO: 4; heavy and light chains SEQ ID NOS: 37 and 38 (antibody)
heavy: EVQLQQSGPELVKPGASVKMSCKASGYTFTDYNMHWVKQSHGRTLEWIGYIVPLNGGSTFNQKFKGRATLTVNTSSRTAYMELRSLTSEDSAAYYCARGGTRFAYWGQGTLVTVSAASTKGPSVFPLAPSSKSTSGGTAALGCLVKDYFPEPVTVSWNSGALTSGVHTFPAVLQSSGLYSLSSVVTVPSSSLGTQTYICNVNHKPSNTKVDKRVEPKSCDKTHTCPPCPAPEAEGAPSVFLFPPKPKDTLMISRTPEVTCVVVDVSHEDPEVKFNWYVDGVEVHNAKTKPREEQYNSTYRVVSVLTVLHQDWLNGKEYKCKVSNKALPSSIEKTISKAKGQPREPQVYTLPPSREEMTKNQVSLTCLVKGFYPSDIAVEWESNGQPENNYKTTPPVLDSDGSFFLYSKLTVDKSRWQQGNVFSCSVMHEALHNHYTQKSLSLSPGK
light: DIVLTQSPASLAVSLGQRATISCRASESVDNFGVSFMYWFQQKPGQPPNLLIYGASNQGSGVPARFRGSGSGTDFSLNIHPMEADDTAMYFCQQTKEVPYTFGGGTKLEIKRTVAAPSVFIFPPSDEQLKSGTASVVCLLNNFYPREAKVQWKVDNALQSGNSQESVTEQDSKDSTYSLSSTLTLSKADYEKHKVYACEVTHQGLSSPVTKSFNRGEC
modifications: Chimeric homo sapiens mus musculus
For B1, the “binding to cells expressing human CD39 (CHO-huCD39)” value [1] was “bound; also recorded: binds”, the “binding to CD39-L1 in ELISA” value [2] was “not to any of the human isoforms” and the “binding to CD39-L4 in ELISA” value [3] was “not to any of the human isoforms”. The “T cell proliferation and activation (CD25 expression, Cell Trace Violet dilution) in MLR” value (allogenic CD4 T cells) was “higher T cell proliferation and activation” and the “effect on tumor growth / tumor volume and mice survival” value [4] was “only marginal effect”.
